Experimental data published in paper PMC6028548.

Experiments:
[1] = biological target: Kif18b-GFP-His (full-length Kif18-GFP-6×His) (human); assay: single-molecule photobleaching (TIRF microscopy); Kif18b-GFP motors moving on GMP-CPP–stabilized microtubules; bleaching steps and intensities of GFP
[2] = biological target: Kif18b-GFP-His (full-length Kif18-GFP-6×His) (human); assay: SEC-MALS; Superdex 200 10/300 GL, MiniDAWN detector; Kif18b-GFP-His at 0.3 mg/ml in gel filtration buffer (25 mM Hepes, pH 7.5, 150 mM NaCl, 300 mM KCl, 5 mM β-mercaptoethanol, 1 mM MgCl2, 1 mM Na-EGTA, 1 mM ATP)
[3] = biological target: GMP-CPP–stabilized microtubules and dynamic microtubules grown from GMP-CPP seeds (TIRF assays) (UniProt P02550); assay: single-molecule TIRF microscopy; rhodamine-labeled GMP-CPP microtubules held on the glass by anti–β-tubulin antibodies; 1–10 nM motor in BRB80 with 1 mM ATP, 0.5 mg/ml casein, oxygen scavengers; 37°C
[4] = biological target: Kif18b_(500–593) (human); assay: SEC-MALS; Superdex 200 10/300 GL, MiniDAWN detector; protein at 2 mg/ml

In the case of “Kif18b-GFP-His (full-length Kif18-GFP-6×His) (natural protein)”, the stoichiometry N [1] is reported as 2, the stoichiometry N [2] is reported as 2 and the dwell time at the microtubule plus end [3] is reported as 22.8 s.

For Kif18b_(500–593) (domain or fragment), the stoichiometry N [4] was 2.

Kif18bΔC-GFP-His (domain or fragment) gave a dwell time at the microtubule plus end [3] of 8.5 s.
